Key:
[1] = biological target: T1, human PD-1 overexpressed on cells (human, UniProt Q15116 25-288); test: cell-based or functional assay
cynomolgus PD1 = biological target: T2, cynomolgus PD1 (cynomolgus, UniProt B0LAJ3 25-170); test: ELISA, cynomolgus PD1 coated, anti-human IgG-HRP detection
T2 construct: Recombinant protein for ELISA; also called cynomolgus PD1 protein
Method: (§1) To evaluate PD1 binding activity of the test bispecific antibodies, human PD1 and cynomolgus PD1 diluted in PBS were coated on a microplate respectively at 4° C. overnight. Three-fold dilution of test antibodies starting from 100 nM were added to each well and incubated for 1 hours at 25° C. Then, the plates were washed with ELISA washing buffer (1×DPBS with 0.5% Tween-20) and incubated with peroxidase conjugated anti-human IgG secondary antibody for 60 minutes at 25° C. After washed four times with ELISA washing buffer, the plates were detected by TMB-ELISA substrate solution, then stopped by ELISA stopping solution and analyzed by microplate reader at OD450 nm.

[2] = biological target: T1, human PD-1 overexpressed on cells; test: flow cytometry on CHO-K1 cells overexpressing human PD-1, PE secondary antibody
Method: (§2) To further determine PD-1 binding activity of the bispecific antibodies, CHO-K1 cells overexpressing human PD-1 were incubated with different concentrations of anti-PD1-VEGF bispecific antibodies and reference antibodies at 4° C. for 30 minutes. Then, the cells were washed twice with FACS buffer and stained with PE conjugated secondary antibody at 4° C. for 30 minutes. After wash twice with FACS buffer, MFI of PE was analyzed by a NovoCyte flow cytometer.

human PD1 = biological target: T3, human PD1 (human, UniProt Q15116 25-167, limits assumed); test: ELISA, human PD1 coated, anti-human IgG-HRP detection
T3 construct: Recombinant protein for ELISA; also called human PD1 protein
Method: as §1

[3] = biological target: T1, human PD-1 overexpressed on cells; test: flow cytometry on CHO-K1 cells overexpressing human PD-1; column headed OD450 but the text says MFI of PE; design: unit not given here
Method: as §2

T1 sequence (Q15116 25-288): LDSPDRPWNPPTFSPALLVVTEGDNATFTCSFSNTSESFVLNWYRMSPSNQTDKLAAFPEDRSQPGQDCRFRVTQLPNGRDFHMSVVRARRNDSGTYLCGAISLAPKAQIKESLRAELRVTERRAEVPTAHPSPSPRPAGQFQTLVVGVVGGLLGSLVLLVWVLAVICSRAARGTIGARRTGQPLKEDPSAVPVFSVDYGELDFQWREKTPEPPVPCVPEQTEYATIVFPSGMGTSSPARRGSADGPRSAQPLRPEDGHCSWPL
T2 sequence (B0LAJ3 entry or part of it limits assumed, form in doubt): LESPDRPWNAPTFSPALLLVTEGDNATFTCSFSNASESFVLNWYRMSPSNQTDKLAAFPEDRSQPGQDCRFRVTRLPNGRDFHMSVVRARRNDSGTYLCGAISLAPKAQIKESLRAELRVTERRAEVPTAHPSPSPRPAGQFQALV
T3 sequence (Q15116 25-167 limits assumed): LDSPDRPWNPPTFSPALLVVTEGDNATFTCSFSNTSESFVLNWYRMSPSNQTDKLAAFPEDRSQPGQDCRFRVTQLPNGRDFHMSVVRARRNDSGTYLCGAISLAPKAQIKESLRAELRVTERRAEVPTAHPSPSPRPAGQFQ

Row | EC50 (nM), PD1 blocking activity (PD1 reporter gene assay) [1] | Top (RLU), PD1 blocking activity (PD1 reporter gene assay) [1] | EC50 (cynomolgus PD1) | Top (OD450) (cynomolgus PD1) | EC50 [2] | EC50 (human PD1) | Top (OD450) (human PD1) | Top (OD450) [3] | Binder
1 | 11.2 nM | 191000 RLU | 151 pM | 1.56 OD450 | 2350 pM | 83 pM | 1.75 OD450 | 963000 | VH18 (anti-PD-1 VHH) (VHH, also called VH18 VHH; anti-PD1 parental antibody VH18) VHH: EVQLVESGGGLVQPGGSLRLSCAVSGNIYNRNFMGWFRQAPGKGREGVSAIYTGTSRTYYADSVKGRFTISRDNAKNTVYLQMNSLRPEDTAVYYCAADLRDGFWDTGVWNTWGQGTLVTVSS
2 | 13.3 nM | 201000 RLU | – | – | 759 pM | – | – | 448000 | VH8M1 (anti-PD-1 VHH) (VHH, also called VH8M1 VHH; anti-PD-1 parental nanobody) VHH: EVQLVESGGGLVQPGGSLRLSCAVSGNIYNRNFMGWFRQAPGKGLEGVSAIYTGTSRTYYADSVKGRFTISRDNSKNTVYLQMNSLRAEDTAVYYCAADLREGFWDTGVWNTWGQGTLVTVSS
3 | – | – | 57 pM | 1.17 OD450 | – | – | – | – | Pembrolizumab (antibody, V domains shown) VH: QVQLVQSGVEVKKPGASVKVSCKASGYTFTNYYMYWVRQAPGQGLEWMGGINPSNGGTNFNEKFKNRVTLTTDSSTTTAYMELKSLQFDDTAVYYCARRDYRFDMGFDYWGQGTTVTVSS VL: EIVLTQSPATLSLSPGERATLSCRASKGVSTSGYSYLHWYQQKPGQAPRLLIYLASYLESGVPARFSGSGSGTDFTLTISSLEPEDFAVYYCQHSRDLPLTFGGGTKVEIKR

— patent US20250019442A1 (LANOVA MEDICINES, published 2025)
